Each block holds one binder with its values, some of them ahead of it.
Tests used:
[1] = molecular target: T1, Recombinant Human DLL4 (delta-like protein 4) (human, UniProt Q9NR61 27-529); test: ECL (MSD) 96-well plate assay; plate coated with 30 µg/mL DLL4; Fab 0.02 µM
T1 construct: Bought recombinant protein (R&D Systems Cat#1506-D4/CF); also called rHuman DLL4; Delta-like 4

[2] = molecular target: T1, Recombinant Human DLL4 (delta-like …); test: ECL (MSD) 96-well plate assay; plate coated with 15 µg/mL DLL4; Fab 0.004 µM
[3] = molecular target: T1, Recombinant Human DLL4 (delta-like …); test: ECL (MSD) multispot assay; Fab 0.1 µM
[4] = molecular target: T1, Recombinant Human DLL4 (delta-like …); test: ECL (MSD) multispot assay; Fab 0.01 µM
[5] = molecular target: T2, Recombinant Human DLL4 (R&D Systems Cat#1506-D4/CF) (human, UniProt Q9NR61 27-524); test: ECL (MSD) binding assay, Fab on immobilized recombinant human DLL4
T2 construct: also called rHuman DLL4; delta-like protein 4

[6] = molecular target: T3, rHuman ErbB2/Fc Chimera, CF (R&D Systems Cat#1129-ER) (human, UniProt P04626 23-652); test: ECL multispot (MSD) binding assay, antigen spotted on plate, Fab 0.04 uM;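 further: purified Fab incubated 1 h at 20 °C on antigen spots, detected via TAG-labelled antibody, ECL read against each well's blank, with signal-to-blank of at least 4 scored as binder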
T3 construct: Bought recombinant protein; also called human epidermal growth factor 2 receptor; Fc part of the bought chimera not given

[7] = molecular target: T4, rHuman EGF R/Fc Chimera, CF (R&D Systems Cat#344-ER) (human, UniProt P00533 25-645); test: as above
T4 construct: Bought recombinant protein; also called epidermal growth factor receptor; Fc part of the bought chimera not given

[8] = molecular target: T5, rHuman P-Cadherin/Fc Chimera, CF (R&D Systems Cat#861-PC) (human, UniProt P22223 108-654); test: as above
T5 construct: Bought recombinant protein; Fc part of the bought chimera not given

[9] = molecular target: T6, Recombinant Human DLL4 (R&D Systems Cat#1506-D4/CF) (human, UniProt Q9NR61 27-524); test: as above
T6 construct: Bought recombinant protein; also called delta-like protein 4; rHuman DLL4

[10] = molecular target: T7, rHuman Notch-1/Fc Chimera, CF (R&D Systems Cat#3647-TK) (human, UniProt P46531 19-526); test: as above
T7 construct: Bought recombinant protein; Fc part of the bought chimera not given

[11] = molecular target: T8, rHuman CD44/Fc Chimera, CF (R&D Systems Cat#3660-CD) (human, UniProt P16070 21-220); test: as above
T8 construct: Bought recombinant protein; Fc part of the bought chimera not given

[12] = molecular target: T9, rHuman Erythropoietin R/Fc Chimera, CF (R&D Systems Cat#963-ER) (human, UniProt P19235 25-250); test: as above
T9 construct: Bought recombinant protein; also called EPO R; EPO R/Fc; Fc part of the bought chimera not given
T9 sequence (looked up): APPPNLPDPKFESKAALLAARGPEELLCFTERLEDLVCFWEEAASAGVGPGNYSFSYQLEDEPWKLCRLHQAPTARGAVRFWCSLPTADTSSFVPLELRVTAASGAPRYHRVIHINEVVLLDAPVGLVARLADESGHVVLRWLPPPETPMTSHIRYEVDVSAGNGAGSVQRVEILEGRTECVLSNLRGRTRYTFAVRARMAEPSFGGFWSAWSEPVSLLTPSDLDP

Signal/Noise [1]: 9.9
Signal/Noise [2]: 8.4
B1: Fab VH1-46_IGHD6-6*01_IGHJ1*01 S104C & L6_IGKJ1*01 (Fab, V domains shown)
VH: QVQLVQSGAEVKKPGASVKVSCKASGYTFTSYYMHWVRQAPGQGLEWMGIINPSGGSTSYAQKFQGRVTMTRDTSTSTVYMELSSLRSEDTAVYYCAREEYSSCSAEYFQHWGQGTLVTVSS
VL: not shown
notes: Fab; The VH was cloned into Plasmid A (CH1, His6 and Flag tags) and the kappa VL into Plasmid C (kappa CL); expressed in E. coli

ECL signal [3]: 20100
Signal/Noise [3]: 88.3
ECL signal [4]: 4160
Signal/Noise [4]: 27
Signal/Noise [1]: 24.9
Signal/Noise [2]: 79.2
B2: Fab VH1-46_IGHD6-6*01_IGHJ1*01 S104H & L6_IGKJ1*01 (Fab, V domains shown)
VH: QVQLVQSGAEVKKPGASVKVSCKASGYTFTSYYMHWVRQAPGQGLEWMGIINPSGGSTSYAQKFQGRVTMTRDTSTSTVYMELSSLRSEDTAVYYCAREEYSSHSAEYFQHWGQGTLVTVSS
VL: not shown
notes: as for B1

Signal/Noise [1]: 23.4
Signal/Noise [2]: 28.6
B3: Fab VH1-46_IGHD6-6*01_IGHJ1*01 S104R & L6_IGKJ1*01 (Fab, V domains shown)
VH: QVQLVQSGAEVKKPGASVKVSCKASGYTFTSYYMHWVRQAPGQGLEWMGIINPSGGSTSYAQKFQGRVTMTRDTSTSTVYMELSSLRSEDTAVYYCAREEYSSRSAEYFQHWGQGTLVTVSS
VL: not shown
notes: as for B1

ECL signal [3]: 27100
Signal/Noise [3]: 195
ECL signal [4]: 4280
Signal/Noise [4]: 15.3
Signal/Noise [1]: 76.5
Signal/Noise [2]: 134
B4: Fab VH1-46_IGHD6-6*01_IGHJ1*01 S104F & L6_IGKJ1*01 (Fab, V domains shown)
VH: QVQLVQSGAEVKKPGASVKVSCKASGYTFTSYYMHWVRQAPGQGLEWMGIINPSGGSTSYAQKFQGRVTMTRDTSTSTVYMELSSLRSEDTAVYYCAREEYSSFSAEYFQHWGQGTLVTVSS
VL: not shown
notes: as for B1

ECL signal [5]: 17400
B5: Fab VH5-51_IGHD5-18*01>3_IGHJ4*01 G100K/G104T/G24A/S28R/G35V (KT ARV) & V3-4_IGLJ1*01 (Fab, V domains shown)
VH: EVQLVQSGAEVKKPGESLKISCKASGYRFTSYWIVWVRQMPGKGLEWMGIIYPGDSDTRYSPSFQGQVTISADKSISTAYLQWSSLKASDTAMYYCARRKYSYTYDYFDYWGQGTLVTVSS
VL: QTVVTQEPSFSVSPGGTVTLTCGLSSGSVSTSYYPSWYQQTPGQAPRTLIYSTNTRSSGVPDRFSGSILGNKAALTITGAQADDESDYYCVLYMGSGISYVFGTGTKVTVL
notes: Tested as Fab; CH1 with His6/Flag tags (plasmid A) and lambda CL (plasmid E) come from the expression vectors

ECL signal [5]: 26100
B6: Fab VH5-51_IGHD5-18*01>3_IGHJ4*01 G100K/G104T/G24T/S28R/G35V (KT TRV) & V3-4_IGLJ1*01 (Fab, V domains shown)
VH: EVQLVQSGAEVKKPGESLKISCKTSGYRFTSYWIVWVRQMPGKGLEWMGIIYPGDSDTRYSPSFQGQVTISADKSISTAYLQWSSLKASDTAMYYCARRKYSYTYDYFDYWGQGTLVTVSS
VL: QTVVTQEPSFSVSPGGTVTLTCGLSSGSVSTSYYPSWYQQTPGQAPRTLIYSTNTRSSGVPDRFSGSILGNKAALTITGAQADDESDYYCVLYMGSGISYVFGTGTKVTVL
notes: Tested as Fab; CH1 with His6/Flag tags (plasmid A) and lambda CL (plasmid E) come from the expression vectors; also called H:KT TRV & L:wt

ECL signal [5]: 15300
B7: Fab VH5-51_IGHD5-18*01>3_IGHJ4*01 G100K/G104T/G24L/S28R/G35V (KT LRV) & V3-4_IGLJ1*01 (Fab, V domains shown)
VH: EVQLVQSGAEVKKPGESLKISCKLSGYRFTSYWIVWVRQMPGKGLEWMGIIYPGDSDTRYSPSFQGQVTISADKSISTAYLQWSSLKASDTAMYYCARRKYSYTYDYFDYWGQGTLVTVSS
VL: QTVVTQEPSFSVSPGGTVTLTCGLSSGSVSTSYYPSWYQQTPGQAPRTLIYSTNTRSSGVPDRFSGSILGNKAALTITGAQADDESDYYCVLYMGSGISYVFGTGTKVTVL
notes: as for B5

ECL signal [6]: 1280
ECL signal [7]: 1000
ECL signal [8]: 491
ECL signal [9]: 32300
B8: Fab VH5-51_IGHD5-18*01>3_IGHJ4*01 G100K/G104T (H:KT) & V3-4_IGLJ1*01 S96A (Fab, V domains shown)
VH: EVQLVQSGAEVKKPGESLKISCKGSGYSFTSYWIGWVRQMPGKGLEWMGIIYPGDSDTRYSPSFQGQVTISADKSISTAYLQWSSLKASDTAMYYCARRKYSYTYDYFDYWGQGTLVTVSS
VL: QTVVTQEPSFSVSPGGTVTLTCGLSSGSVSTSYYPSWYQQTPGQAPRTLIYSTNTRSSGVPDRFSGSILGNKAALTITGAQADDESDYYCVLYMGAGISYVFGTGTKVTVL
notes: Fab; Expressed from Plasmid A (CH1, His6 and Flag tags) and Plasmid E (lambda CL); also called KT & S96A

ECL signal [10]: 725
ECL signal [11]: 700
ECL signal [8]: 497
ECL signal [12]: 602
ECL signal [9]: 8110
B9: Fab VH5-51_IGHD5-18*01>3_IGHJ4*01 G100K/G104T (H:KT) & V3-4_IGLJ1*01 Y93A (Fab, V domains shown)
VH: EVQLVQSGAEVKKPGESLKISCKGSGYSFTSYWIGWVRQMPGKGLEWMGIIYPGDSDTRYSPSFQGQVTISADKSISTAYLQWSSLKASDTAMYYCARRKYSYTYDYFDYWGQGTLVTVSS
VL: QTVVTQEPSFSVSPGGTVTLTCGLSSGSVSTSYYPSWYQQTPGQAPRTLIYSTNTRSSGVPDRFSGSILGNKAALTITGAQADDESDYYCVLAMGSGISYVFGTGTKVTVL
notes: Fab; Expressed from Plasmid A (CH1, His6 and Flag tags) and Plasmid E (lambda CL); also called KT & Y93A

ECL signal [5]: 6420
B10: Fab VH5-51_IGHD5-18*01>3_IGHJ4*01 G100K/G104T/S28R (KT S28R) & V3-4_IGLJ1*01 (Fab, V domains shown)
VH: EVQLVQSGAEVKKPGESLKISCKGSGYRFTSYWIGWVRQMPGKGLEWMGIIYPGDSDTRYSPSFQGQVTISADKSISTAYLQWSSLKASDTAMYYCARRKYSYTYDYFDYWGQGTLVTVSS
VL: QTVVTQEPSFSVSPGGTVTLTCGLSSGSVSTSYYPSWYQQTPGQAPRTLIYSTNTRSSGVPDRFSGSILGNKAALTITGAQADDESDYYCVLYMGSGISYVFGTGTKVTVL
notes: as for B5

ECL signal [6]: 1320
ECL signal [7]: 956
ECL signal [10]: 674
ECL signal [11]: 670
ECL signal [8]: 500
ECL signal [12]: 693
ECL signal [9]: 18200
B11: Fab VH5-51_IGHD5-18*01>3_IGHJ4*01 G100K/G104T (H:KT) & V3-4_IGLJ1*01 S99A (Fab, V domains shown)
VH: EVQLVQSGAEVKKPGESLKISCKGSGYSFTSYWIGWVRQMPGKGLEWMGIIYPGDSDTRYSPSFQGQVTISADKSISTAYLQWSSLKASDTAMYYCARRKYSYTYDYFDYWGQGTLVTVSS
VL: QTVVTQEPSFSVSPGGTVTLTCGLSSGSVSTSYYPSWYQQTPGQAPRTLIYSTNTRSSGVPDRFSGSILGNKAALTITGAQADDESDYYCVLYMGSGIAYVFGTGTKVTVL
notes: Fab; Expressed from Plasmid A (CH1, His6 and Flag tags) and Plasmid E (lambda CL); also called KT & S99A

ECL signal [6]: 1200
ECL signal [7]: 1130
ECL signal [10]: 574
ECL signal [11]: 633
ECL signal [8]: 472
ECL signal [12]: 614
ECL signal [9]: 35300
B12: Fab VH5-51_IGHD5-18*01>3_IGHJ4*01 G100K/G104T (H:KT) & V3-4_IGLJ1*01 M94A (Fab, V domains shown)
VH: EVQLVQSGAEVKKPGESLKISCKGSGYSFTSYWIGWVRQMPGKGLEWMGIIYPGDSDTRYSPSFQGQVTISADKSISTAYLQWSSLKASDTAMYYCARRKYSYTYDYFDYWGQGTLVTVSS
VL: QTVVTQEPSFSVSPGGTVTLTCGLSSGSVSTSYYPSWYQQTPGQAPRTLIYSTNTRSSGVPDRFSGSILGNKAALTITGAQADDESDYYCVLYAGSGISYVFGTGTKVTVL
notes: Fab; Expressed from Plasmid A (CH1, His6 and Flag tags) and Plasmid E (lambda CL); also called KT & M94A
